Experimental data from patent US20220106398A1 (IGM BIOSCIENCES, published 2022).

T1: human His6-GITR (human, UniProt Q9Y5U5 26-162)
T1 construct: His6-tagged recombinant protein; also called hGITR-His; human GITR-His
T1 sequence: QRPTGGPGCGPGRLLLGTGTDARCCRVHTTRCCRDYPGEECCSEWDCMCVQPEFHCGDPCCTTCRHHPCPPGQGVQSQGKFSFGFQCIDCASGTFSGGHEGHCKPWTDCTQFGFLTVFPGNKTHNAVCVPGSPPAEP

T2: cynomolgus monkey His6-GITR (cynomolgus monkey)
T2 construct: His6-tagged recombinant protein; also called cGITR-His; cyno GITR-His
T2 chain: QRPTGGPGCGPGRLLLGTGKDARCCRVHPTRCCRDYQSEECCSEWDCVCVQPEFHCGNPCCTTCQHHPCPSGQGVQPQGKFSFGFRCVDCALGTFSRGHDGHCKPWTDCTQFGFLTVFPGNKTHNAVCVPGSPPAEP

T3: mouse His6-GITR (mouse, UniProt O35714 20-153)
T3 construct: His6-tagged recombinant protein; also called mGITR-His; mouse GITR-His
T3 sequence: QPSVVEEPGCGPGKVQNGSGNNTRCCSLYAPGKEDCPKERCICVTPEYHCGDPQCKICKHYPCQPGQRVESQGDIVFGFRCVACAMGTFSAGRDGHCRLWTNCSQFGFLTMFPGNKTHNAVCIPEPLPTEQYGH


Tests used:
human His6-GITR [1] = molecular target: T1, human His6-GITR; experiment: CARTERRA LSA, scFv periplasmic extract
[2] = molecular target: T2, cynomolgus monkey His6-GITR; experiment: ELISA, scFv periplasmic extract on coated His6-GITR
Protocol: (§1) The SuperHuman-2.0 scFv Antibody Library (available from Distributed Bio, South San Francisco, Calif.) was used to perform selection with human, cynomolgus or mouse GITR proteins. Selected phage clones from overnight growth were inoculated into wells in 96 well deep well plates containing 1 mL of medium. scFv expression was induced by addition of IPTG (Teknova) to a final concentration of 1 mM. Plates were grown overnight after induction. To prepare periplasmic extracts (PPE), the plates containing the phage clones were centrifuged at 2500 rpm for 10 min, the supernatant discarded and then pellets treated with 75 μL of cold periplasmic extract buffer with appropriate concentration of protease inhibitors (Complete Mini, EDTA-free -Roche Applied Biosciences—Cat No 1836170). After shaking at room temperature for 10 min, 225 μL of cold ddH2O with added protease inhibitor (1 tablet/50 mL) was added per well and mixed by pipetting up and down. PPE extraction was completed by incubation at room temperature for an additional 1 hr. The plates were then centrifuged at 4000 rpm for 20 minutes and 200 μL of PPE supernatant was collected from each well and transferred to a new plate which was then blocked with equal volume of 4% milk (2% final) to prepare blocked PPE extracts. In the meantime, Maxisorp plates (Nunc 442404) coated with relevant antigen (human, mouse or cynomolgus monkey His6-GITR) at 50 μl/well of 1 μg/mL antigen or 2% BSA in PBS as control were prepared for ELISA analyses. Next, 50 μL of each blocked PPE extract was transferred to the pre-blocked ELISA plates coated with the relevant antigens. After incubation and washing 3× with PBS, 50 μL of anti-V5 tag antibody (tag included in the phage display constructs, Invitrogen Cat No R960-25) at 1:5000 dilution in 2% milk was added and the plates were incubated for 1 hr. […] After further washing 3× with PBST, 50 μl/well of TMB substrate was added and the plates were developed until positive controls were visible. The reaction was stopped with 50 μl/well of 2N H2SO4. Plates were read at 450 nm to determine ELISA signal from bound PPE derived scFv.

human His6-GITR [3] = molecular target: T1, human His6-GITR; experiment: as above
Protocol: as §1

mouse His6-GITR = molecular target: T3, mouse His6-GITR; experiment: as above
Protocol: as §1

Binder | Kd (human His6-GITR [1]) | cGITR-His/BKG [2] | hGITR-His/BKG (human His6-GITR [3]) | mGITR-His/BKG (mouse His6-GITR)
GITR-Mab-8 scFv (scFv, V domains shown, scFv in periplasmic extract, V5 tag) VH: QVQLVQSGAEVKKPGASVKVSCKASGGTFSSYVISWVRQAPGQGLEWMGWMNPGSGNTGYAQKFQGRVTMTRDTSTSTVYMELSSLRSEDTAVYYCITDSEDDYWGQGTLVTVSS VL: not shown | 49.6 nM | 16.1 fold over background | 9.6 fold over background | 1.4 fold over background
GITR-Mab-6 scFv (scFv, V domains shown, scFv in periplasmic extract, V5 tag) VH: QVQLVQSGAEVKKPGASVKVSCKASGYAFTAYYLHWVRQAPGQGLEWMGWMNPNSGNTGYAQKFQGRVTMTRDTSTSTVYMELSSLRSEDTAVYYCAREGWGYYDGGFDPWGQGTLVTVSS VL: not shown | 0.1 nM | 7.5 fold over background | 35.8 fold over background | 1 fold over background
GITR-Mab-7 scFv (scFv, V domains shown, scFv in periplasmic extract, V5 tag) VH: QVQLVQSGAEVKKPGASVKVSCKASGGTSSTYAVTWVRQAPGQGLEWMGVINPNDGSTTYAQNFQGRVTMTRDTSTSTVYMELSSLRSEDTAVYYCARWTPLFGVVIPDYYYYGMDVWGQGTLVTVSS VL: DIQMTQSPSSLSASVGDRVTITCQASQDISNYLNWYQQKPGKAPKLLIYAASSLQSGVPSRFSGSGSGTDFTLTISSLQPEDFATYYCQQSYSTPPTFGQGTRLEIK | 11.5 nM | 9 fold over background | 16.4 fold over background | 1 fold over background
GITR-Mab-5 scFv (scFv, V domains shown, scFv in periplasmic extract, V5 tag) VH: EVQLLESGGGLVQPGGSLRLSCAASGFTFDAYAMHWVRQAPGKGLEWVSAIGTGGDTYYADSVKGRFTISRDNSKNTLYLQMNSLRAEDTAVYYCARDLYGSGSPQYYYYYGMDVWGQGTTVTVSS VL: DIQMTQSPSSLSASVGDRVTITCRASQGIKNDLGWYQQKPGKAPKLLIYAASSLQSGVPSRFSGSGSGTDFTLTISSLQPEDFATYYCQQSYSVPFTFGQGTKVEIK | 8.3 nM | 8 fold over background | 16.3 fold over background | 1.2 fold over background
GITR-Mab-3 scFv (scFv, V domains shown, scFv in periplasmic extract, V5 tag) VH: QVQLVQSGAEVKKPGASVKVSCKASGYTFTSYDINWVRQAPGQGLEWMGWISGYNGNTNYAQKFQGRVTMTRDTSTSTVYMELSSLRSEDTAVYYCARSHEYYYYYGMDVWGQGTLVTVSS VL: EIVMTQSPATLSVSPGERATLSCRASQSVSSSYLAWYQQKPGQAPRLLIYGASTRATGIPARFSGSGSGTEFTLTISSLQSEDFAVYYCQQYYTTPFTFGPGTKVDIK | 10.5 nM | 11.1 fold over background | 12.1 fold over background | 1 fold over background
GITR-Mab-17 scFv (scFv, V domains shown, scFv in periplasmic extract, V5 tag) VH: QVQLVQSGAEVKKPGASVKVSCKASGYTFTSYGISWVRQAPGQGLEWMGWMNPNSGNTGYAQKFQGRVTMTRDTSTSTVYMELSSLRSEDTAVYYCARLGLWFGEYQYYFDYWGQGTLVTVSS VL: not shown | 24.5 nM | – | 18.9 fold over background | 1.1 fold over background

The remaining lines, values ahead:

Kd (human His6-GITR [1]) | cGITR-His/BKG [2] | hGITR-His/BKG (human His6-GITR [3]) | mGITR-His/BKG (mouse His6-GITR) | Binder
– | 21 fold over background | 13 fold over background | 24.9 fold over background | GITR-Mab-47 scFv (scFv, V domains shown, scFv in periplasmic extract, V5 tag) VH: QVQLVQSGAEVKKPGSSVKVSCKASGGTFSTYAINWVRQAPGQGLEWMGIINPTDGDTSYAQKFQGRVTITADESTSTAYMELSSLRSEDTAVYYCARAAYYYYGMDVWGQGTTVTVSS VL: not shown
– | 12 fold over background | 11.7 fold over background | 14.6 fold over background | GITR-Mab-43 scFv (scFv, V domains shown, scFv in periplasmic extract, V5 tag) VH: QVQLVQSGAEVKKPGASVKVSCKASGYTFTSHDIDWVRQAPGQGLEWMGWMNPNNGNTVYAQRFQGRVTMTRDTSTSTVYMELSSLRSEDTAVYYCARWKVYSGSYYGGAGYFDLWGRGTLVTVSS VL: DIQMTQSPSSLSASVGDRVTITCRASQSISSYLNWYQQKPGKAPKLLIYRASHLEGGVPSRFSGSGSGTDFTLTISSLQPEDFATYYCQQADSLPLTFGQGTKVEIK
– | 10.3 fold over background | 9.9 fold over background | 10.4 fold over background | GITR-Mab-41 scFv (scFv, V domains shown, scFv in periplasmic extract, V5 tag) VH: QVQLVQSGAEVKKPGASVKVSCKASGGSFSDYAVSWVRQAPGQGLEWMGWMNPNSGNTGYAQKFQGRVTMTRDTSTSTVYMELSSLRSEDTAVYYCARELVRDGYNFALDYWGQGTLVTVSS VL: DIQMTQSPSSLSASVGDRVTITCRASQDIRNDLAWYQQKPGKAPKLLIYAASSLQSGVPSRFSGSGSGTDFTLTISSLQPEDFATYYCQQSFSTFYTFGQGTKLEIK
– | 0.8 fold over background | 12.7 fold over background | 1.1 fold over background | GITR-Mab-26 scFv (scFv, V domains shown, scFv in periplasmic extract, V5 tag) VH: QVQLVQSGAEVKKPGASVKVSCKASGYTFTSYGISWVRQAPGQGLEWMGWMNPNNGNTVYAQKFQGRVTMTRDTSTSTVYMELSSLRSEDTAVYYCAKDSDWYGAFDIWGQGTMVTVSS VL: DIQMTQSPSSLSASVGDRVTITCQASQSISRWLAWYQQKPGKAPKLLIYSASSLQSGVPSRFSGSGSGTDFTLTISSLQPEDFATYYCQQSYSTPWTFGQGTKLEIK
– | 23.2 fold over background | 35.6 fold over background | 0.9 fold over background | GITR-Mab-23 scFv (scFv, V domains shown, scFv in periplasmic extract, V5 tag) VH: EVQLLESGGGLVQPGGSLRLSCAASGFPFSTYAIHWVRQAPGKGLEWVSAISGSGGSTYYADSVKGRFTISRDNSKNTLYLQMNSLRAEDTAVYYCAGPDWYFDLWGRGTLVTVSS VL: DIQMTQSPSSLSASVGDRVTITCRASQAISNSLAWYQQKPGKAPKLLIYAASTLQRGVPSRFSGSGSGTDFTLTISSLQPEDFATYYCQQYYSTPYTFGQGTKLEIK
– | 12.3 fold over background | 12.4 fold over background | 15.6 fold over background | GITR-Mab-44 scFv (scFv, V domains shown, scFv in periplasmic extract, V5 tag) VH: QVQLVQSGAEVKKPGASVKVSCKASGYTFTSHDIDWVRQAPGQGLEWMGWINPSGDSTSYAQKFQGRVTMTRDTSTSTVYMELSSLRSEDTAVYYCARYYGGNSYAFDIWGQGTMVTVSS VL: DIQMTQSPSSLSASVGDRVTITCRASESISPWVAWYQQKPGKAPKLLIYAASTLQSGVPSRFSGSGSGTDFTLTISSLQPEDFATYYCQQGTSTPYTFGQGTKLEIK
– | 8.9 fold over background | 9.4 fold over background | 9.5 fold over background | GITR-Mab-48 scFv (scFv, V domains shown, scFv in periplasmic extract, V5 tag) VH: QVQLVQSGAEVKKPGASVKVSCKASGYSFTSHDIDWVRQAPGQGLEWMGWINPNSGGTNYAQKFQGRVTMTRDTSTSTVYMELSSLRSEDTAVYYCARIRGYYGSGSYHDAFDIWGQGTTVTVSS VL: not shown
– | 5.3 fold over background | 4 fold over background | 6.5 fold over background | GITR-Mab-46 scFv (scFv, V domains shown, scFv in periplasmic extract, V5 tag) VH: QVQLVQSGAEVKKPGASVKVSCKASGGSFSNYAINWVRQAPGQGLEWMGWMNPYSGNTGYAQKFQGRVTMTRDTSTSTVYMELSSLRSEDTAVYYCAREITANYYYGMDVWGQGTKVTVSS VL: DIQMTQSPSSLSASVGDRVTITCQASQDISNYLNWYQQKPGKAPKLLIYEASVLESGVPSRFSGSGSGTDFTLTISSLQPEDFATYYCQQSYTTQYTFGQGTKVEIK
– | 1.1 fold over background | 22.2 fold over background | 1.1 fold over background | GITR-Mab-25 scFv (scFv, V domains shown, scFv in periplasmic extract, V5 tag) VH: QVQLVQSGAEVKKPGASVKVSCKASGGTFSSYAISWVRQAPGQGLEWMGWVSGYNGNANYAQKFQGRVTMTRDTSTSTVYMELSSLRSEDTAVYYCARDRVESGYSYHDAFDIWGQGTMVTVSS VL: DIQMTQSPSSLSASVGDRVTITCRTSQSIRRYLNWYQQKPGKAPKLLIYAASSLQSGVPSRFSGSGSGTDFTLTISSLQPEDFATYYCQQSYSIPWTFGPGTKVDIK
– | 4.2 fold over background | 5.5 fold over background | 1 fold over background | GITR-Mab-42 scFv (scFv, V domains shown, scFv in periplasmic extract, V5 tag) VH: QVQLVQSGAEVKKPGASVKVSCKASGYIFTNYWIQWVRQAPGQGLEWMGWINPHSGATKYAERFQGRVTMTRDTSTSTVYMELSSLRSEDTAVYYCARGLGSAFDIWGQGTMVTVSS VL: not shown
